This test concerns the target complement C3b (UniProt P01024). The test is described as follows: not stated; C3b binding affinity of polymorphic variants, data in Supplementary Table S3.

“moss-produced factor H Val62/His402 variant (from UniProt P08603 19-1231) (natural protein)” yielded a fold lower C3b binding affinity than the CPV-101 Ile62/Tyr402 variant of 1.5 fold.
